Tests used:
[1] = molecular target: T1, Murine CD73 on cells (4T1, Jurkat mCD73 knock-in) (murine, UniProt Q61503 29-551); experiment: flow cytometry, Jurkat (mCD73 knock-in) / Jurkat
T1 construct: whole, on cells; also called 4T1 (murine)
T1 sequence (looked up): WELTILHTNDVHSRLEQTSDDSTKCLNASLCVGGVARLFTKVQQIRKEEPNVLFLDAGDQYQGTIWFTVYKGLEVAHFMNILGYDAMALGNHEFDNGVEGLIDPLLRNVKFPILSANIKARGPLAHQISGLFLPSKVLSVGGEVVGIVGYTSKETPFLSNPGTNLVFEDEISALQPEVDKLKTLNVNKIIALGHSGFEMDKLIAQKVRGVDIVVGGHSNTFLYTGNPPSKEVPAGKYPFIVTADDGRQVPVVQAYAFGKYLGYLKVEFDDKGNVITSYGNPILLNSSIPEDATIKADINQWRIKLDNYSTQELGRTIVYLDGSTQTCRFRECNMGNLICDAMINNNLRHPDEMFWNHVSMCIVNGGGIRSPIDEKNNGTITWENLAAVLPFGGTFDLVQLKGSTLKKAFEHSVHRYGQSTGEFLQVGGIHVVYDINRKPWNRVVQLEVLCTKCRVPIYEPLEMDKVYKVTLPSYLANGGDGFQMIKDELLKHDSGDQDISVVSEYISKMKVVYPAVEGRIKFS

[2] = molecular target: T2, CD73 construct with chicken N- and C-terminal domain sequence with human V144 and N185 knocked in (chicken; human); experiment: SPR, MEDI9447 dilutions from 5 nM to 0.3 nM
T2 chain: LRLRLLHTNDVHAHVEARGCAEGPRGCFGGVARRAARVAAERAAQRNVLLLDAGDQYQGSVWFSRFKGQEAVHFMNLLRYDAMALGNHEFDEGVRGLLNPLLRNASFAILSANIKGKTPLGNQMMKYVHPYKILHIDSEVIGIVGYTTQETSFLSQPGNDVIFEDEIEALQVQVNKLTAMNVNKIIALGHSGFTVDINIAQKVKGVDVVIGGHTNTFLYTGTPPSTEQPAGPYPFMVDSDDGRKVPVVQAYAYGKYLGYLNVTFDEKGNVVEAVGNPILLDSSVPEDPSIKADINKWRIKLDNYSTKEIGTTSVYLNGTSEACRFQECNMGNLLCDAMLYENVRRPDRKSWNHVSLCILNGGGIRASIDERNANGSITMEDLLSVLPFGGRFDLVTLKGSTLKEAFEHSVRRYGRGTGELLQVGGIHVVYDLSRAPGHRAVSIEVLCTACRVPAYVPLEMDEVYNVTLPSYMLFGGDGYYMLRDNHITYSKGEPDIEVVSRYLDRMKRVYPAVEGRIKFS
Description: FIG. 24C depicts a close-up of the epitope residues located within the N-terminal domain of CD73. The most important residues for binding are shown highlighted and less impactful positions (Y135, K136, and N187) are in pink. The HDX interface is overlaid in blue. FIG. 24D depicts a surface representation showing that the epitope forms a near contiguous binding surface. FIG. 24E depicts a crystal structure of the open conformation of CD73 showing the position of the epitope at the apical, lateral surface of the N-terminal domain. […] In all crystal structures, the CD73 N-terminal domain, linker region, and C-terminal domain are depicted in yellow, orange, and blue, respectively.
Binding of MEDI9447 to wild-type and mutant CD73 proteins was measured by surface plasmon resonance (SPR) using a ProteOn instrument (BioRad). CD73 crude cell supernatant protein samples were diluted to 3 µg/ml in PBS, 0.005% Tween-20, pH 7.4 (BioRad) and immobilized to ~400 RU on a HTG tris-NTA sensor chip (BioRad) pre-activated with 10 mM NiSO₄, 10 mM MES, pH 6.0 (BioRad). […] Sensorgrams were recorded by flowing two-fold dilutions of MEDI9447 prepared in PBS, 0.005% Tween-20, pH 7.4, ranging from 5 nM to 0.31 nM. […] Antibody binding was measured at a flow rate of 100 µL/min with a 3 min association phase and 20 min dissociation phase. […] Binding kinetics were analyzed using the ProteOn data analysis software. […]

[3] = molecular target: T3, Human CD73 on cells (MDA-MB-231, Jurkat CD73 knock-in, NCI-H322) (human, UniProt P21589 27-549); experiment: flow cytometry, MDA-MB-231 / MDA-MB-231(CD73-shRNA)
T3 construct: GPI-anchored native protein; also called native human CD73
T3 sequence: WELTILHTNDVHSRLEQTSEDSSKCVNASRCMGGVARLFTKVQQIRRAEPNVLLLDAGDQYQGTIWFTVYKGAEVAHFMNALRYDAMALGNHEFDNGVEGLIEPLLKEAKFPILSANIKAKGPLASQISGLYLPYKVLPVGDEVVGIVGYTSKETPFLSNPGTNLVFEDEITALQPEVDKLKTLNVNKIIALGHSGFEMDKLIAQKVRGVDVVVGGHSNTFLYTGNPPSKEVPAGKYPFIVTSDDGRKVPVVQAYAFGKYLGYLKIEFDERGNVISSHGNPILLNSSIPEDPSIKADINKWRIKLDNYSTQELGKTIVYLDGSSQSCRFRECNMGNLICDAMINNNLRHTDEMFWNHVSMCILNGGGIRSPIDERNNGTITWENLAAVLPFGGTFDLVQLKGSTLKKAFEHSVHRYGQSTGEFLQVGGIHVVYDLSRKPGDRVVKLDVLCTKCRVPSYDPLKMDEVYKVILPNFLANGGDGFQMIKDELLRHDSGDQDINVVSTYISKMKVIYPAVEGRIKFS

B1: MEDI9447 (antibody, human IgG1, lambda, V domains shown)
VH: EVQLLESGGGLVQPGGSLRLSCAASGFTFSSYAYSWVRQAPGKGLEWVSAISGSGGRTYYADSVKGRFTISRDNSKNTLYLQMNSLRAEDTAVYYCARLGYGRVDEWGRGTLVTVSS
VL: QSVLTQPPSASGTPGQRVTISCSGSLSNIGRNPVNWYQQLPGTAPKLLIYLDNLRLSGVPDRFSGSKSGTSASLAISGLQSEDEADYYCATWDDSHPGWTFGGGTKLTVLG
notes: Human IgG1-TM (L234F, L235E, P331S), lambda light chain; also called clone 10.3 antibody; 73combo3
With B1 the “Mean Fluorescence Intensity Ratio (MFIR)” value [1] was 57.1, the “fold of the KD for wild-type CD73” value [2] was less than 20 fold and the “Mean Fluorescence Intensity Ratio (MFIR)” value [3] was 3.5.

— patent publication US20230340152A1 (published 2023)
